From the Immune Epitope Database (IEDB)

Assays:
[1] = target: HLA-B*18:01; assay: IEDB peptide-MHC binding, purified MHC/competitive/radioactivity; filed as Kd, often an IC50 or EC50 that approximates it; ≥ and ≤ were set here for values at or beyond the usual limits of such assays
[2] = target: HLA-B*45:01; assay: as above
[3] = target: HLA-B*40:02; assay: as above
[4] = target: HLA-B*44:02; assay: as above
[5] = target: HLA-B*40:01; assay: as above
[6] = target: HLA-B*44:03; assay: as above
[7] = target: HLA-B*18:01; assay: IEDB peptide-MHC binding, purified MHC/direct/fluorescence; filed as Kd, often an IC50 or EC50 that approximates it; ≥ and ≤ were set here for values at or beyond the usual limits of such assays; details: source organism: Yellow fever virus 17D
[8] = target: HLA-A*11:01; assay: IEDB peptide-MHC binding, purified MHC/competitive/fluorescence; ≥ and ≤ were set here for values at or beyond the usual limits of such assays
[9] = target: HLA-A*31:01; assay: IEDB peptide-MHC binding, purified MHC/direct/fluorescence; filed as Kd, often an IC50 or EC50 that approximates it; ≥ and ≤ were set here for values at or beyond the usual limits of such assays; details: source organism: Giardia lamblia ATCC 50803
[10] = target: HLA-A*26:01; assay: as above; details: source organism: Giardia lamblia ATCC 50803
[11] = target: HLA-A*69:01; assay: as above; details: source organism: Giardia lamblia ATCC 50803
[12] = target: HLA-B*27:05; assay: as above; details: source organism: Giardia lamblia ATCC 50803
[13] = target: HLA-A*01:01; assay: as above; details: source organism: Giardia lamblia ATCC 50803
[14] = target: HLA-B*07:02; assay: as above; details: source organism: Giardia lamblia ATCC 50803
[15] = target: HLA-B*08:01; assay: as above; details: source organism: Giardia lamblia ATCC 50803
[16] = target: HLA-B*15:01; assay: as above; details: source organism: Giardia lamblia ATCC 50803
[17] = target: HLA-A*03:01; assay: as above; details: source organism: Giardia lamblia ATCC 50803
[18] = target: HLA-B*44:02; assay: as above; details: source organism: Giardia lamblia ATCC 50803
[19] = target: HLA-A*02:01; assay: as above; details: source organism: Giardia lamblia ATCC 50803
[20] = target: HLA-B*40:01; assay: as above; details: source organism: Giardia lamblia ATCC 50803
[21] = target: HLA-A*11:01; assay: as above; details: source organism: Giardia lamblia ATCC 50803
[22] = target: HLA-B*58:01; assay: as above; details: source organism: Giardia lamblia ATCC 50803
[23] = target: HLA-B*46:01; assay: IEDB peptide-MHC binding, purified MHC/competitive/fluorescence; filed as Kd, often an IC50 or EC50 that approximates it; ≥ and ≤ were set here for values at or beyond the usual limits of such assays; details: source organism: Giardia lamblia ATCC 50803
[24] = target: HLA-A*24:02; assay: IEDB peptide-MHC binding, purified MHC/competitive/fluorescence; ≥ and ≤ were set here for values at or beyond the usual limits of such assays; details: source organism: Zaire ebolavirus
[25] = target: HLA-A*02:01; assay: as above; details: source organism: Zaire ebolavirus
[26] = source organism: SARS coronavirus Tor2
[27] = source organism: Mammarenavirus guanaritoense
[28] = source organism: Mammarenavirus machupoense
[29] = source organism: Lymphocytic choriomeningitis virus (strain Armstrong)

Q: With YEQVVMDYL as the sequence, how does the Kd [1, 26] read?
A: 0.349 µM

Q: What about the Kd [2, 26] of the same sequence?
A: 3.78 µM

Q: And the Kd [3, 26]?
A: 0.0302 µM

Q: And the Kd [4, 26]?
A: 0.371 µM

Q: What about the Kd [5, 26] of the same sequence?
A: 0.000609 µM

Q: And the Kd [6, 26]?
A: 0.298 µM

Q: For SEYKGPVTDV, which Kd [1, 26] is on record?
A: ≥ 70.5 µM

Q: What about the Kd [2, 26] of the same sequence?
A: 0.0372 µM

Q: What about the Kd [3, 26] of the same sequence?
A: 0.0229 µM

Q: What about the Kd [4, 26] of the same sequence?
A: 17.1 µM

Q: And the Kd [5, 26]?
A: 1 µM

Q: And the Kd [6, 26]?
A: 0.795 µM

Q: Which Kd [1, 27] does the source give for EDFLLMYEM here?
A: 0.0921 µM

Q: What about the Kd [2, 27] of the same sequence?
A: 4.64 µM

Q: And the Kd [3, 27]?
A: 0.00567 µM

Q: What about the Kd [4, 27] of the same sequence?
A: 0.582 µM

Q: And the Kd [5, 27]?
A: 16.9 µM

Q: What about the Kd [6, 27] of the same sequence?
A: 2.55 µM

Q: EEPAALLPLS was tested. Which Kd [1, 28] did it give?
A: 11.5 µM

Q: What about the Kd [2, 28] of the same sequence?
A: 0.211 µM

Q: And the Kd [3, 28]?
A: 0.859 µM

Q: And the Kd [4, 28]?
A: 3.41 µM

Q: What about the Kd [5, 28] of the same sequence?
A: 12 µM

Q: And the Kd [6, 28]?
A: ≥ 20 µM

Q: How did the Kd [7] turn out when SEQGEFKLL was run?
A: 0.875 µM

Q: How did the Kd [1, 27] turn out when AEAYCTGML was run?
A: ≥ 77.5 µM

Q: What about the Kd [2, 27] of the same sequence?
A: 1.38 µM

Q: And the Kd [3, 27]?
A: 0.111 µM

Q: And the Kd [4, 27]?
A: 0.182 µM

Q: What about the Kd [5, 27] of the same sequence?
A: 0.116 µM

Q: And the Kd [6, 27]?
A: 0.343 µM

Q: For RVLSLIGLK, which IC50 ([8]; source organism: West Nile virus) is on record?
A: 0.334 µM

Q: AEFWDVFLS was tested. Which Kd [9] did it give?
A: ≥ 20 µM

Q: And the Kd [10]?
A: ≥ 20 µM

Q: What about the Kd [11] of the same sequence?
A: ≥ 20 µM

Q: And the Kd [12]?
A: ≥ 20 µM

Q: What about the Kd [13] of the same sequence?
A: ≥ 20 µM

Q: And the Kd [14]?
A: ≥ 20 µM

Q: And the Kd [15]?
A: ≥ 20 µM

Q: What about the Kd [16] of the same sequence?
A: ≥ 20 µM

Q: And the Kd [17]?
A: ≥ 20 µM

Q: What about the Kd [18] of the same sequence?
A: ≥ 20 µM

Q: And the Kd [19]?
A: ≥ 20 µM

Q: What about the Kd [20] of the same sequence?
A: 0.0499 µM

Q: And the Kd [21]?
A: ≥ 20 µM

Q: What about the Kd [22] of the same sequence?
A: ≥ 20 µM

Q: AAFLDDNAF was tested. Which Kd [9] did it give?
A: ≥ 20 µM

Q: And the Kd [10]?
A: ≥ 20 µM

Q: What about the Kd [11] of the same sequence?
A: ≥ 20 µM

Q: And the Kd [12]?
A: ≥ 20 µM

Q: And the Kd [13]?
A: ≥ 20 µM

Q: And the Kd [14]?
A: ≥ 20 µM

Q: And the Kd [15]?
A: ≥ 20 µM

Q: And the Kd [16]?
A: 0.106 µM

Q: What about the Kd [17] of the same sequence?
A: ≥ 20 µM

Q: What about the Kd [18] of the same sequence?
A: ≥ 20 µM

Q: What about the Kd [20] of the same sequence?
A: ≥ 20 µM

Q: What about the Kd [21] of the same sequence?
A: ≥ 20 µM

Q: And the Kd [22]?
A: ≥ 20 µM

Q: And the Kd [23]?
A: 0.118 µM

Q: How did the Kd [1, 26] turn out when QEAYEQAVA was run?
A: 3.87 µM

Q: What about the Kd [2, 26] of the same sequence?
A: 0.0149 µM

Q: What about the Kd [3, 26] of the same sequence?
A: 1.2 µM

Q: What about the Kd [4, 26] of the same sequence?
A: 17.3 µM

Q: And the Kd [5, 26]?
A: ≥ 26 µM

Q: And the Kd [6, 26]?
A: 6.86 µM

Q: How did the IC50 ([8]; source organism: Vaccinia virus Copenhagen) turn out when KDESIFINK was run?
A: ≥ 82.6 µM

Q: MGVTGILQL was tested. Which IC50 [24] did it give?
A: ≥ 85.2 µM

Q: What about the IC50 [25] of the same sequence?
A: 52.9 µM

Q: And the IC50 ([8]; source organism: Zaire ebolavirus)?
A: ≥ 73.8 µM

Q: EDQLLPFMS was tested. Which Kd [1, 29] did it give?
A: ≥ 55.5 µM

Q: And the Kd [2, 29]?
A: 3.73 µM

Q: What about the Kd [3, 29] of the same sequence?
A: ≥ 65.4 µM

Q: What about the Kd [4, 29] of the same sequence?
A: ≥ 35.2 µM

Q: And the Kd [5, 29]?
A: ≥ 59.3 µM

Q: What about the Kd [6, 29] of the same sequence?
A: ≥ 78.1 µM

Q: With DESALNISGY as the sequence, how does the Kd [1, 27] read?
A: 0.0225 µM

Q: What about the Kd [2, 27] of the same sequence?
A: ≥ 70 µM

Q: And the Kd [3, 27]?
A: ≥ 29.2 µM

Q: What about the Kd [4, 27] of the same sequence?
A: 10.9 µM

Q: What about the Kd [5, 27] of the same sequence?
A: ≥ 69.5 µM

Q: What about the Kd [6, 27] of the same sequence?
A: 3.37 µM

Q: For YENAFLPFT, which Kd [1, 26] is on record?
A: 0.112 µM

Q: What about the Kd [2, 26] of the same sequence?
A: 0.0936 µM

Q: And the Kd [3, 26]?
A: 0.0364 µM

Q: And the Kd [4, 26]?
A: 1.65 µM

Q: And the Kd [5, 26]?
A: 6.12 µM

Q: What about the Kd [6, 26] of the same sequence?
A: 0.857 µM

Q: For AEAAVKPLL, which Kd [1, 26] is on record?
A: ≥ 77.5 µM

Q: And the Kd [2, 26]?
A: 0.152 µM

Q: And the Kd [3, 26]?
A: 19.5 µM

Q: And the Kd [4, 26]?
A: 0.0608 µM

Q: And the Kd [5, 26]?
A: 0.00843 µM

Q: And the Kd [6, 26]?
A: 0.0536 µM
